From US8357518B2, “Thermostable enzymes for the hydrolysis of mannan-containing polysaccharides” (The Board of Trustees of the University of Illinois, priority 2010, dated 2013) come the findings set out here.

Holding throughout (assay type): biochemical, Caldanaerobius polysaccharolyticus
Substrate in data set [1]: OC[C@H]1O[C@@H](O[C@H]2[C@H](O)[C@@H](O)[C@H](O[C@H]3[C@H](O)[C@@H](O)[C@H](O[C@H]4[C@H](O)[C@@H](O)[C@H](O[C@H]5[C@H](O)[C@@H](O)C(O)O[C@@H]5CO)O[C@@H]4CO)O[C@@H]3CO)O[C@@H]2CO)[C@H](O)[C@@H](O)[C@@H]1O
The experiment in a line: Catalytic efficiency with oligosaccharides, HPAEC (Man5B). The settings on record: other: Man5B 3 nM, oligosaccharide 30 μM, citrate buffer 50 mM, pH 5.5, 5 min, triplicate. Here is the method: (§1) Cloning, expression, and purification of Man5A-TM1, Man5A-TM2 and Man5B. C. polysaccharolyticus was cultured in TYG medium and DNA was isolated from mid-log cultures and purified using the Qiagen DNeasy Blood and Tissue kit with an integrated RNase treatment step. The genome of C. polysaccharolyticus was partially sequenced by the W. M. Keck Biotechnology Center at the University of Illinois at Urbana-Champaign. A Newbler assembly was generated which is comprised of ½ plate of FLX PE 454 data and ½ plate of 8 kb paired-end GSFLX Titanium data using a Genome Sequencer instrument from 454 Life Sciences (Branford, Conn.). The partial genome sequence was uploaded onto the Rapid Annotation using Subsystem Technology (RAST) server (Aziz et al., BMC Genomics, 9:75, 2008). Auto-annotation of the C. polysaccharolyticus partial genome sequence identified ORF0760 as a gene predicted to encode a bifunctional β-D-mannanase/endoglucanase (Man5B). Man5A was previously identified in a recombinant phage library of C. polysaccharolyticus genomic DNA, which was screened for endoglucanase activity (Cann et al., J Bacteriol, 181:1643, 1999) and the full sequence of this gene was also identified in the partial genome sequence for C. polysaccharolyticus.
(§2) The DNA sequence corresponding to man5B was amplified by the PicoMaxx high fidelity PCR kit using genomic DNA as the template with the primer set Man5B-Forward and Man5B-Reverse (Table 1-1). The primers were engineered to incorporate a 5′-[…] (SEQ ID NO: 54) extension in Man5B-F and a 5′-[…] (SEQ ID NO: 55) extension in Man5B-R, which facilitated subsequent directional cloning. The resultant man5B amplicon was then digested with T4 DNA polymerase exonuclease activity, annealed with a similarly digested pET-46b vector and introduced into E. coli JM109 by electroporation. Man5A-TM1 was amplified using genomic DNA as template with primers Man5A-TM1-F and Man5A-TM1-R (Table 1-1). The primer sets for Man5A-TM1 and Man5A-TM2 were designed to include 5′-NdeI and 3′-XhoI restriction sites for subsequent directional cloning. The resulting amplicons were then cloned into the pGEM-T vector via TA-cloning and subcloned in-frame with the hexahistidine (His6) encoding sequence of a modified pET-28a expression vector via its NdeI-XhoI polylinker site. The truncated protein Man5A-TM2 originally named ManA-SLH-CBD was cloned as described in a previous study (Cann et al., J Bacteriol, 181:1643, 1999). Expression of each of the resulting gene constructs yielded fusion proteins containing an N-terminal polyhistidine tag sequence to facilitate affinity purification via metal chelate chromatography. The resulting plasmid constructs pET46-Man5B, pET28a-Man5A-TM1, and pET-28a-Man5A-TM2 were sequenced to confirm the integrity of the cloned genes (W. M. Keck Center for Comparative and Functional Genomics at the University of Illinois at Urbana-Champaign).
(§3) The plasmid constructs were then introduced into E. coli BL-21 CodonPlus (DE3) RIL competent cells by heat shock, and grown overnight in lysogeny broth (LB) agar medium supplemented with ampicillin (100 μg/mL) and chloramphenicol (50 μg/mL) at 37° C. After 12 h, single colonies were selected and used to inoculate fresh LB (10 mL) supplemented with the antibiotics above at the same concentrations, followed by culturing with aeration for 8 h at 37° C. […]

Substrate in data set [2]: OC[C@H]1O[C@@H](O[C@H]2[C@H](O)[C@H](O)C(O)O[C@@H]2CO)[C@@H](O)[C@@H](O)[C@@H]1O
Described as above. The settings on record: other: Man5B 3 nM, oligosaccharide 30 μM, citrate buffer 50 mM, pH 5.5, 5 min, triplicate. Here is the method: as §1, §2, §3

Substrate in data set [3]: OC[C@H]1O[C@@H](O[C@H]2[C@H](O)[C@H](O)[C@H](O[C@H]3[C@H](O)[C@H](O)[C@H](O[C@H]4[C@H](O)[C@H](O)[C@H](O[C@H]5[C@H](O)[C@H](O)C(O)O[C@@H]5CO)O[C@@H]4CO)O[C@@H]3CO)O[C@@H]2CO)[C@@H](O)[C@@H](O)[C@@H]1O
The data set is described as above. As to conditions: other: Man5B 3 nM, oligosaccharide 30 μM, citrate buffer 50 mM, pH 5.5, 5 min, triplicate. The procedure:
as §1, §2, §3

Substrate in data set [4]: OC[C@H]1O[C@H](OC[C@H]2OC(O)[C@@H](O)[C@@H](O)[C@@H]2O[C@@H]2O[C@H](CO)[C@@H](O)[C@H](O)[C@@H]2O)[C@H](O)[C@@H](O)[C@H]1O
The data set is described as above. As to conditions: other: Man5B 3 nM, oligosaccharide 30 μM, citrate buffer 50 mM, pH 5.5, 5 min, triplicate. The procedure: as §1, §2, §3

Substrate in data set [5]: OC[C@H]1O[C@H](OC[C@H]2OC(O)[C@@H](O)[C@@H](O)[C@@H]2O[C@@H]2O[C@H](CO)[C@@H](O[C@@H]3O[C@H](CO)[C@@H](O)[C@H](O)[C@@H]3O)[C@H](O)[C@@H]2O)[C@H](O)[C@@H](O)[C@H]1O
The data set is described as above. As to conditions: other: Man5B 3 nM, oligosaccharide 30 μM, citrate buffer 50 mM, pH 5.5, 5 min, triplicate. The procedure: as §1, §2, §3

Substrate in data set [6]: OC[C@H]1O[C@@H](O[C@H]2[C@H](O)[C@@H](O)[C@H](O[C@H]3[C@H](O)[C@@H](O)[C@H](O[C@H]4[C@H](O)[C@@H](O)C(O)O[C@@H]4CO)O[C@@H]3CO)O[C@@H]2CO)[C@H](O)[C@@H](O)[C@@H]1O
Kind of data set: Catalytic efficiency with oligosaccharides, HPAEC (Man5A-TM1). The settings on record: other: Man5A-TM1 0.3 μM, oligosaccharide 30 μM, citrate buffer 50 mM, pH 5.5, 5 min, triplicate. Here is the method:
as §1, §2
(§4) The plasmid constructs were then introduced into E. coli BL-21 CodonPlus (DE3) RIL competent cells by heat shock, and grown overnight in lysogeny broth (LB) agar medium supplemented with ampicillin (100 μg/mL) and chloramphenicol (50 μg/mL) at 37° C. After 12 h, single colonies were selected and used to inoculate fresh LB (10 mL) supplemented with the antibiotics above at the same concentrations, followed by culturing with aeration for 8 h at 37° C. The pre-cultures were then inoculated into fresh LB (1 L) supplemented with ampicillin and chloramphenicol and the cultures were incubated at 37° C. with vigorous aeration (225 rpm/min). The cultures were grown to an optical density of 0.3 at 600 nm, and the temperature was shifted to 16° C. and gene expression was induced by the addition of 0.1 mM isopropyl β-D-thiogalactopyranoside (IPTG). […]

Substrate in data set [7]: OC[C@H]1O[C@@H](O[C@H]2[C@H](O)[C@H](O)[C@H](O[C@H]3[C@H](O)[C@H](O)[C@H](O[C@H]4[C@H](O)[C@H](O)C(O)O[C@@H]4CO)O[C@@H]3CO)O[C@@H]2CO)[C@@H](O)[C@@H](O)[C@@H]1O
Described as above. As to conditions: other: Man5A-TM1 0.3 μM, oligosaccharide 30 μM, citrate buffer 50 mM, pH 5.5, 5 min, triplicate. The procedure:
as §1, §2, §4

B1: Caldanaerobius polysaccharolyticus endo-β-mannanase Man5B, wild type, SEQ ID NO: 31 (Caldanaerobius polysaccharolyticus) (protein)
chain: MKKYGFNFQWMYVWEEGREPEPPDKKALDFLAETGFNFVRIPVDYRFWTRNFDYFNPDKKVFEYIDLYLRECSARNIHMCLNLHRAPGYCINRNDIERDNLWLDKRAQDGFVYQWELFAKRYKGVSSKFLSFDLVNEPPNIGQYGLTRENHASLIIRTVEAIRKIDPDREIVIDGLGGGNIAMPELAHLGVVHSGRGYQPMALTHYQASWWDGHKGLPEPYYPDLLWQGKVWNKDTLREYYKPWRDLQQKGVNVHIGEFGCFNKTSNDVAIRWFEDVLSLYKEFEWGYSLWNFKGPFGIVEHGRPGAKYEYYRGFKVDRELLDLLVENRV
Consider B1, for which the kcat/Km is 17000 ± 3000 M⁻¹ s⁻¹ in data set [1]; 230 ± 30 M⁻¹ s⁻¹ in data set [2]; “(2.2 ± 0.3) × 10^2 mM^−1 s^−1” in data set [3]; 1500 ± 200 M⁻¹ s⁻¹ in data set [4]; 30000 ± 7000 M⁻¹ s⁻¹ in data set [5].

B2: Caldanaerobius polysaccharolyticus endo-β-mannanase Man5A truncation mutant Man5A-TM1, SEQ ID NO: 28 (Caldanaerobius polysaccharolyticus) (protein)
chain: AGTSGDGRFHVVGNKIVDPDGKDFIIKGVNIQGYRSWEKRSVLQDVHLIADVWKFNTVRLNCFIGQNNWGEGTGANNDIDAIIKAFTAKKVVVEIDLHDTTGYPPLSNPPPAPGQPSLDQAIAWFKELAAKYKDNPYVWFNTMNEPGSSTAPLDPQWKVANEEIIKAIRSTGADNIIVVDGWSYANEGIEQNTPTVDEKRSAVLTYGQDLLNADSAKNTIFAFHNYNEGDIQKKVEDYIDRANAKGLYVFMEEYGKDYSDAAKEGVKSGLQAVMNKGAGRIYWNWDGYDLYDLTSGTGRGSGWEINKTDGSKPTNLSWVGDKIWDDNHGITPTFDDQNPKVDLALERLIANNNGFKAGDKVQFTTFLRNSGDLPIGKDSKVVVKFYVDGVQLGDPVEISGGIAVGQRIPVTSPELTVSKTDFTVKAVIDSSSTYADGAEDAVIENNWIEAAFNSTAPSSGYELVVTGIKITPDTVKEGDYVQAQVTVANQGPEATPVTNIIGWFYVNGYYYTLDDAAKSCAEQDNVTLKPGESITLSTKVKYRAAAPFNFSFVLENLYADDQNQSNNSITVNVPVKMGEGGVNMVSNPGFEDGLDSWQDWQQDMSAVPEAAHNGALGLKIGGGKAAGGGQDIPLKPNTTYILGAWAKFDSKPAGTFDVVVQYHLKDANNTYVQHILNFNETDWTYKQLLFTTPDVFGSTPQLALWKGDTSKANLYVDDVYLVEVSNLIVNGTAENGMDGWPDWGYPVSAVPEAAYGGTKGFKLSGGKQAGMGQKVALKPNTTYILGAWGKFTAKPGTYCDVIVQYHLKDANNTYVQNILRFTETDWTYKQVVFTTPDAFGSDPEFVLWKDDASNADFYADNITLVEV
Regarding B2, the kcat/Km in data set [6] is 11000 ± 2000 M⁻¹ s⁻¹; in data set [7] it was 17000 ± 4000 M⁻¹ s⁻¹.

Usually kcat/Km stands for the second-order rate constant that governs catalysis at low substrate concentration.
